Experimental data from paper PMC11014265.
Read-outs that look alike come from different tables or passages of the source.

Columns and labels:
HrpA1-630 [1] = molecular target: T1, HrpA1-630 (Escherichia coli, UniProt P43329 1-630); test: crystal structure
T1 sequence: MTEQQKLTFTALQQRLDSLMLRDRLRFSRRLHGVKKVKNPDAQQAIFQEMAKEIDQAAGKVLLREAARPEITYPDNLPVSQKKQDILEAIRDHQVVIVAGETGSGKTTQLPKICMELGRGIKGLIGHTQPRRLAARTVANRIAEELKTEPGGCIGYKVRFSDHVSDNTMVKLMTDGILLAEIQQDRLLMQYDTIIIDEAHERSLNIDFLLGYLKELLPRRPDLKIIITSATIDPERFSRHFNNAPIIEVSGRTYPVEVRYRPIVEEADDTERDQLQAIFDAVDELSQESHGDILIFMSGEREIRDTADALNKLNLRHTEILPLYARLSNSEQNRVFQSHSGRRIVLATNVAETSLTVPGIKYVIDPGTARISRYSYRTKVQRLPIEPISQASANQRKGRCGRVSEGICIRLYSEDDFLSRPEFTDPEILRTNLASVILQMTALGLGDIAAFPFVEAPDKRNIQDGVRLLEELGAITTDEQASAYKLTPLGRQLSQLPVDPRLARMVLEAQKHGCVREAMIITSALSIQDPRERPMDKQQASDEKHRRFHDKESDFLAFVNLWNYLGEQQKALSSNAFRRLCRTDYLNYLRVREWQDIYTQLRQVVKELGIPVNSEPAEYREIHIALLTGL

HrpA1-630 [2] = molecular target: T1, HrpA1-630; test: crystal structure; remark: listed apart in the source

B1: D-C11 i-motif (structured_DNA)
DNA 1: CCCCCCCCCCC
DNA 2: CCCCCCCCCCC
HrpA1-630 [1]
  binding result: binds

## CCCCCCCCCCC (ssDNA) [D-C11, C2 complex]
HrpA1-630 [2]
  binding result: binds
